Target: the molecule itself
Assay: native gel or EMSA; gB before encapsulation and gB released from nanoparticles, analysed under native non-reducing conditions (Fig. S5A)

B1: EBV gB ectodomain (residues 22 to 672, fusion-loop residues replaced with HSV-1 residues), 6x His tag (domain or fragment)
chain: AQTPEQPAPPATTVQPTATRQQTSFPFRVCELSSHGDLFRFSSDIQCPSFGTRENHTEGLLMVFKDNIIPYSFKVRSYTKIVTNILIYNGHRADSVTNRHEEKFSVDSYETDQMDTIYQCYNAVKMTKDGLTRVYVDRDGVNITVNLKPTGGLANGVRRYASQTELYDAPGRVEATYRTRTTVNCLITDMMAKSNSPFDFFVTTTGQTVEMSPFYDGKNKETFHERADSFHVRTNYKIVDYDNRGTNPQGERRAFLDKGTYTLSWKLENRTAYCPLQHWQTFDSTIATETGKSIHFVTDEGTSSFVTNTTVGIELPDAFKCIEEQVNKTMHEKYEAVQDRYTKGQEAITYFITSGGLLLAWLPLTPRSLATVKNLTELTTPTSSPPSSPSPPAPSAARGSTPAAVLRRRRRDAGNATTPVPPTAPGKSLGTLNNPATVQIQFAYDSLRRQINRMLGDLARAWCLEQKRQNMVLRELTKINPTTVMSSIYGKAVAAKRLGDVISVSQCVPVNQATVTLRKSMRVPGSETMCYSRPLVSFSFINDTKTYEGQLGTDNEIFLTKKMTEVCQATSQYYFQSGNEIHVYNDYHHFKTIELDGIATLQTFISLNTSLIENIDFASLELYSRDEQRASNVFDLEGIFREYNFQAQNIA
notes: Epstein-Barr virus glycoprotein B (gB), ectodomain residues 22 to 672, PCR-amplified from the EBV M81 strain (GenBank KF373730.1); WY112-113 and WLIW193-196 replaced with HSV-1 residues HR177-178 and RVEA258-261; Tested both before encapsulation and after release from the nanoparticles; also called glycoprotein B; fusogen gB; source: 293F cells, transiently transfected (pCDNA3.1-gB), purified …
- stoichiometry N: 3

From PMC11192767, “A cocktail nanovaccine targeting key entry glycoproteins elicits high neutralizing antibody levels against EBV infection” (Nature Communications, 2024)
